Results published in patent US20040010124A1 (MacroGenics, published 2004).
Substitutions are numbered along the chain they refer to.

B1: hu3G8VH-1/hu3G8VL-1 (antibody, human IgG1, kappa)
heavy: not shown
light: DIVMTQSPDSLAVSLGERATINCKASQSVDFDGDSFMNWYQQKPGQPPKLLIYTTSNLESGVPDRFSGSGSGTDFTLTISSLQAEDVAVYYCQQSNEDPYTFGQGTKLEIKRTVAAPSVFIFPPSDEQLKSGTASVVCLLNNFYPREAKVQWKVDNALQSGNSQESVTEQDSKDSTYSLSSTLTLSKADYEKHKVYACEVTHQGLSSPVTKSFNRGEC
notes: HEK-293; also called Hu3G8-1.1
B2: hu3G8VH-3/hu3G8VL-1 (antibody, V domains shown)
VH: QVTLRESGPALVKPTQTLTLTCTFSGFSLRTSGMGVGWIRQPPGKALEWLAHIWWDDDKRYNPALKSRLTISKDTSKNQVVLTMTNMDPVDTATYYCARINPAWFAYWGQGTLVTVSS
VL: DIVMTQSPDSLAVSLGERATINCKASQSVDFDGDSFMNWYQQKPGQPPKLLIYTTSNLESGVPDRFSGSGSGTDFTLTISSLQAEDVAVYYCQQSNEDPYTFGQGTKLEIK
notes: Human Cγ1/Cκ constant regions; HEK-293
B3: hu3G8VH-23/hu3G8VL-1 (antibody, V domains shown)
VH: B2 VH with R30S, M34V, N62S, A64S, R99K, W104Y
VL: B2 VL
notes: as for B2
B4: hu3G8VH-24/hu3G8VL-1 (antibody, V domains shown)
VH: B2 VH with R30S, M34V, N62S, A64S, R99A, W104Y
VL: B2 VL
notes: as for B2
B5: hu3G8VH-4/hu3G8VL-1 (antibody, V domains shown)
VH: B2 VH with R30S, R99Q, A106D
VL: B2 VL
notes: as for B2
B6: hu3G8VH-40/hu3G8VL-1 (antibody, V domains shown)
VH: B2 VH with V2I, R5K, A10T, R30S, M34V, W54F, N62S, A64S
VL: B2 VL
notes: as for B2
B7: hu3G8VH-44/hu3G8VL-1 (antibody, V domains shown)
VH: QITLKESGPTLVKPTQTLTLTCTFSGFSLSTSGVGVGWIRQPPGKALEWLAHIWWDDDKRYSPSLKSRLTITKDTSKNQVVLTMTNMDPVDTATYYCAHINPAYFDYWGQGTLVTVSS
VL: B2 VL
notes: as for B2
B8: hu3G8VH-36/hu3G8VL-1 (antibody, V domains shown)
VH: B7 VH with H52L, T72S, H99Q
VL: B2 VL
notes: as for B2
B9: hu3G8VH-42/hu3G8VL-1 (antibody, V domains shown)
VH: B7 VH with H99R, Y104W, D106A
VL: B2 VL
notes: as for B2
B10: hu3G8VH-28/hu3G8VL-1 (antibody, V domains shown)
VH: B7 VH with I2V, K5R, T10A, T72S, H99A
VL: B2 VL
notes: as for B2
B11: hu3G8VH-43/hu3G8VL-1 (antibody, V domains shown)
VH: B7 VH with H99R, D106A
VL: B2 VL
notes: as for B2
B12: hu3G8VH-27/hu3G8VL-1 (antibody, V domains shown)
VH: B7 VH with I2V, K5R, T10A, T72S, H99K
VL: B2 VL
notes: as for B2
B13: hu3G8VH-18/hu3G8VL-1 (antibody, V domains shown)
VH: B2 VH with R30S, R99H
VL: B2 VL
notes: as for B2
B14: hu3G8VH-30/hu3G8VL-1 (antibody, V domains shown)
VH: B7 VH with I2V, K5R, T10A, T72S, H99Q
VL: B2 VL
notes: as for B2
B15: hu3G8VH-19/hu3G8VL-1 (antibody, V domains shown)
VH: B2 VH with R30S, R99Q, W104Y
VL: B2 VL
notes: as for B2
B16: hu3G8VH-16/hu3G8VL-1 (antibody, V domains shown)
VH: B2 VH with R30S, R99K
VL: B2 VL
notes: as for B2
B17: hu3G8VH-6/hu3G8VL-1 (antibody, V domains shown)
VH: B2 VH with R30S, M34V, A106D
VL: B2 VL
notes: as for B2
B18: hu3G8VH-37/hu3G8VL-1 (antibody, V domains shown)
VH: B7 VH with H52L, T72S, H99K, D106A
VL: B2 VL
notes: as for B2
B19: hu3G8VH-8/hu3G8VL-1 (antibody, V domains shown)
VH: B2 VH with R30S, W104Y
VL: B2 VL
notes: as for B2
B20: hu3G8VH-5/hu3G8VL-1 (antibody, V domains shown)
VH: B2 VH with R30S, R99Q
VL: B2 VL
notes: Human Cγ1/Cκ constant regions; HEK-293; also called Hu3G8-5.1; h3G8 5.1
B21: hu3G8VH-29/hu3G8VL-1 (antibody, V domains shown)
VH: B7 VH with I2V, K5R, T10A, T72S
VL: B2 VL
notes: as for B2
B22: hu3G8VH-17/hu3G8VL-1 (antibody, V domains shown)
VH: B2 VH with R30S, R99A
VL: B2 VL
notes: as for B2
B23: hu3G8VH-12/hu3G8VL-1 (antibody, V domains shown)
VH: B2 VH with R30S, N62S, A64S
VL: B2 VL
notes: as for B2
B24: hu3G8VH-45/hu3G8VL-1 (antibody, V domains shown)
VH: B7 VH with H99Q
VL: B2 VL
notes: as for B2
B25: hu3G8VH-25/hu3G8VL-1 (antibody, V domains shown)
VH: B7 VH with I2V, K5R, T10A, T72S, D106A
VL: B2 VL
notes: as for B2
B26: hu3G8VH-14/hu3G8VL-1 (antibody, V domains shown)
VH: B2 VH with R30S, D56N
VL: B2 VL
notes: as for B2
B27: chimeric antibody ch3G8 (ch3G8VH/ch3G8VL) (antibody, V domains shown)
VH: QVTLKESGPGILQPSQTLSLTCSFSGFSLRTSGMGVGWIRQPSGKGLEWLAHIWWDDDKRYNPALKSRLTISKDTSSNQVFLKIASVDTADTATYYCAQINPAWFAYWGQGTLVTVSS
VL: DTVLTQSPASLAVSLGQRATISCKASQSVDFDGDSFMNWYQQKPGQPPKLLIYTTSNLESGIPARFSASGSGTDFTLNIHPVEEEDTATYYCQQSNEDPYTFGGGTKLEIK
notes: Mouse 3G8 VH (FR4 ala to ser) on human Cγ1 and mouse 3G8 VL on human Cκ; also called chimeric 3G8; ch3G8-γ1

These binders were tested against T1, soluble form of human CD16A (sCD16A) (human, UniProt P08637 17-203) (assay: ELISA, sCD16A captured by mAb LNK-16).
T1 construct: CD16A gene truncated just prior to the transmembrane region, expressed in HEK-293; The last seven residues come from vector pCDNA3.1; also called sFcRIIIa
Experimental: The plate was washed and dilutions of recombinant antibodies starting at 0.5 μg/ml in PBS-T-BSA were then added and incubated for 1 hr at room temp. […] After stopping color development using dilute sulfuric acid, the plate was read at 450 nm.

T1 sequence (P08637 other isoform, or with tags, fused parts or gaps limits assumed): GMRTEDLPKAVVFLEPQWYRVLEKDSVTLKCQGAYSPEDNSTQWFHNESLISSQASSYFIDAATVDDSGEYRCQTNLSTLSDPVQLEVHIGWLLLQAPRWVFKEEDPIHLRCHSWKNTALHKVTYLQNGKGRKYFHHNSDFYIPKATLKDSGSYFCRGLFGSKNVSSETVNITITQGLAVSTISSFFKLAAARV

binding result | Binder
binds | B1
binds | B2
binds | B3
binds | B4
binds | B5
binds | B6
binds | B7
binds | B8
binds | B9
binds | B10
binds | B11
binds | B12
binds | B13
binds | B14
binds | B15
binds | B16
binds | B17
binds | B18
binds | B19
binds | B20
binds | B21
binds | B22
binds | B23
binds | B24
binds | B25
binds | B26

What follows are binders tested against T1, soluble form of human CD16A (sCD16A) (assay: in vitro, method not given).
From the text: The same format was used to assay binding of sFcRs to immune complexes (IC) formed on the ELISA plate between ch4-4-20 and FITC-BSA.
After one hour, binding of the soluble receptor to the IC was detected using streptavidin-HRP conjugate and TMB development.

binding result | Binder
binds | B27
